Source: the domain aggregation screens of Martell et al. (2025)

assay: soluble fraction after stress (log2 fold change); higher = more stays soluble; pooled small domains, quantitative proteomics; conditions: stress: 75 degC
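Further: 20 min heating vs room temperature control held 20 min.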

Going from “HMSWNIHEAVEYYKGQDAPQNQFALVELLKEVQEHNGGVLTDIAVEEIAALLNTKVTFLNAVIKRYPSLK” to “HMSYEDLIQAVSGHFGIEIRALLSEDRKKENMIPRQVAMYLLKNKLHYTYERIGNIFSGRNHTAVMYSV”, the “soluble fraction (log2)” value rises from -0.661 to -0.263.

Going from “HMSYGKVQFVIDAKDAVLSIDGKETDYEKPVKLTYGSHTITVYSSDYDTWKRNLYVNSEKSTVVINLA” to “HMSYKDIKEASDTGTYRDEENNIDVKWQKLFNGHNEYFDIEAYRDGERVEINNQQADRYIYLIKQEMD”, the “soluble fraction (log2)” value rises from -3.13 to 0.678.

First: HMSYPEIFQSLTEREQKIADMIAEHLSNKEIAEKMFLSEGTIKQYINQIYSKLQITGDIRNKRKQLIELFH
Second: HMSYTPGQWVEASMPNATFFRIVPSGNATADKMLAVATPMKVISTSGTYVKVELDSGDVGFVPEIMV
The “soluble fraction (log2)” value of the first is lower: -1.62 for the first, -0.199 for the second.

Compared with “HMTAEASELRERIRAAMATLPPAQQRVIELAYFEGLTQREIAALLNEPLGTIKTRMRLGMRKLKDVL”, “HMTAIKAGDLVKITGTKYYGGQTIPGWVKNQNWYVQEVSGDRAVINKNESGTNAIMSPIRVSDLTPVS” is higher in “soluble fraction (log2)” value: -2.35 for the first, 0.036 for the second.

First: HMTALPPNVSIDSDERRLLEAIGFDPVDMDVLARDGQFSSVDLFRLLVSLELKGLVENQHGAYQRL
Second: HMTALSAREHEVLQLITRGYTADEIAAMLQISRHTALTYVRRIYSKLKVNSKAEAIFEVRQR
The “soluble fraction (log2)” value of the first is lower: -1.85 for the first, -0.926 for the second.

Compared with “HMTANPHKPEPLQIDTSDITPGVTVIHKAFGNGTVVSVDNNRILIDFDGIEKKFPFPGAFLYGFLQK”, “HMTAPDDFIRAEVTASGKNGMAVAELSKRVRTRFKSFKVRELGYPHLAGYLADVEGVRVYKQGRENWVAK” is lower in “soluble fraction (log2)” value: -0.547 for the first, -0.899 for the second.

Going from “HMTAQASDIEKVLQVIETLGFRGHTLPGENRTAIGVTGNRGSIDPAHFENLPGVADAIRVTKPY” to “HMTARPTLEKLKYMIHEAGITENSLKVIVATKGHYGLDADISTYSDDFITRWIIPNWTKIVQTISNNK”, the “soluble fraction (log2)” value falls from -0.0976 to -1.81.

First: HMTASSYMGMQLGRLEELLKKEVLSLSEKTELKDLISDFDKIPEVVSPKIIGRYLQLKNQHFAKINA
Second: HMTAVVPNFKGKLISELSNFVADKNVRYTIIDSIYDPEEKSGIVIKQDPEEKTQVKHNRIIYLYVTST
The “soluble fraction (log2)” value of the first is higher: -0.437 for the first, -1.51 for the second.

Going from “HMTDDFAGRFNELLIHNQETAVTAATRLEVSPAVITKWRQGKSIPSGEYIKRIVETYHVSADYLLGVIDTP” to “HMTDEEFSRIVKYTAVRYGINLYHKKVMVEGRLSNYLAANGFKSYTEYMDRVEADYTGQEAQNLINILTT”, the “soluble fraction (log2)” value falls from -0.838 to -2.53.

Going from “HMTDFDPDGREKLIKVQKALHFNNHQLADALRVGQATFSSYIYGRVAAGVPVRVVKAAEDLLKNSKATV” to “HMTDFDWSLFTQQLKRFNLFLSYDDREKLQTFQTLYGLNELDLAEYVAKASAGEKNGLNFNYLRQLINKEK”, the “soluble fraction (log2)” value falls from -0.531 to -1.46.

First: HMTDFNTFSDAIIAAVGSRASGLKVVDNAVSVMVDVSGLNEDQRVEIEADVRAAAEHAGAQSVRIMLT
Second: HMTDLALHIGKTLRELRQRRGWSLDKTAQATGVSKAMLGQIERGESSPTVVTLWRISSGLQASFSEFLPP
The “soluble fraction (log2)” value of the first is higher: -0.58 for the first, -3.69 for the second.

First: HMTDLDVAVTMTVALEEAVNGATRRVRLPNGKELNVKIPAGVAAGQQIRLKGQGETAPGHRPGDVLITVNI
Second: HMTDLQNDIQAFNLKKMSYQHETKKLEEKRNPEKLEKLEQDIQALYLRIMENPNMRAFDSAKQALYLQIM
The “soluble fraction (log2)” value of the first is higher: -0.712 for the first, -0.948 for the second.

First: HMTDLVVGLAGITLEPLRPAGKAEFNGSVVDVVSLGDYIEKSTAIQIVEIEGNRIVVHHGED
Second: HMTDQYEVQNLVGLTVREAQEKEGVKDIFEVREVGSEFSAEYDAGLIVRQSPDAGEQRKGEGLVIEVWVSA
The “soluble fraction (log2)” value of the first is lower: -0.865 for the first, 0.106 for the second.

Compared with “HMTDSLELADLLRRAIITGEYKPRERLVEMELAQKYSVSRTPVREALKHLEALGLVKMERYKGAMVAD”, “HMTDSQLVEAENHVALRQAMAHLGPRERELIGLYYFEEQSQTQIAARFGVSQMQVSRWLTSAVGRIRGQMA” is higher in “soluble fraction (log2)” value: -0.911 for the first, 0.209 for the second.

Compared with “HMTDWNTVEKETLSAIQKVLSGQASWIDLSPADHSIRHMQHEMVQQAGLISQSYGKEPMRRIRIYQNP”, “HMTEDADIERRLTGILASAGWYRSLAVEVKEGIVYLDGATASGNHRDWAGSLAAKTEGVVAVVNRIEVQP” is lower in “soluble fraction (log2)” value: -0.039 for the first, -1.86 for the second.

Compared with “HMTEDIAVRILEFLEDNNGFYALNDKTPSEKIHDLFGVSKKKFKIALGGLYKQRLITVSDAGVTLVK”, “HMTEDTPIIVERVVADIDENVVAIVRKFKDAFKSITAQREIKKKLRSILWVNYQIKDQEVFDKAYQYIEMY” is higher in “soluble fraction (log2)” value: -1.67 for the first, 0.241 for the second.

Compared with “HMTEEDVVIFSGLSDRDLKMVQTELANSGIKYTLPTSGTVSVPNSEIARAQMVLAMAGIPRS”, “HMTEEVIIQNYIGKNFNDVRDELEAKGITVDEPNMKYSDEFKENTIMAQSIKPGQPLKPGGFNSIKFDVS” is lower in “soluble fraction (log2)” value: 0.246 for the first, -0.0167 for the second.

First: HMTEFFNMQDMFYFKLTGDVTSKERRQSLGKILGIGYGNAAQMVSRLNNYGITKEEFTNAINEIEKQMEAG
Second: HMTEISGIEKFLASGAINGIGPAMAKKIVAEFGEKTLEIIAKSPNELLKVPGIGKKTAEKISTSYLEQ
The “soluble fraction (log2)” value of the first is lower: -0.715 for the first, -0.04 for the second.

First: HMTEKEEERTEDLNYYRLNLISMLKSSYPEYLDDEEFISNRSQEAAEAFEDAVRSGSNYLDASAESNRTLY
Second: HMTEKIRLTVDEAGKNQRVDKYISTLLTQFSRSSIKTWIETGNILLDNTRTKPRTLLSPGQVIDIQPRFED
The “soluble fraction (log2)” value of the first is higher: -0.229 for the first, -1.09 for the second.

“HMTEKIVFNIDGQTGRIDKILADFMTGTSRSQIQAWVKDGNLMVNDKAVKSNYKVQDGDLLELTIPEPEQ” and “HMTELIEDYVELIGDLIRHRGEARAADIANRMAVSQATVSKMIRRLNELGLVTSKPYRSLFLTDEGQKMAE” are within 0.2 log units of each other in “soluble fraction (log2)” value: -0.284 for the first, -0.363 for the second.

Compared with “HMTELLTPKQRQVFELALREGYYDVPRRTSITEMARLLGVAKSTLSAQMHRMEATVMSTFAEEIRKQ”, “HMTENIPPVKIEEMRQKWQDIVLLHGVTSGRKIKSGQATYIWLYRNDQNWLLTFNSRHLSQPQV” is higher in “soluble fraction (log2)” value: -2.01 for the first, 0.232 for the second.

“HMTEPKILTAEESQRLDLILVQQWPELGRRALRELVQQGGVRINGELALKAGQYVQAGERVEVAVP” and “HMTEQKNNEQQNAVNEKKQALKQLMEKGKEKGSLSYNEVNALLDKLEFTEDQKAIVYDQLHSEDIELQ” are within 0.2 log units of each other in “soluble fraction (log2)” value: 0.232 for the first, 0.3 for the second.

Compared with “HMTEQLTLVGKTGVTTTDLRPSGKVEVDGKRYDAVADNGAFISKGAHIKVVRYVTGQVYVVPTD”, “HMTERIRLHDDIGSWVEKHGATRSALIPVLQGIQRSYNEISEYAMQEVADRLDIHPVEVYSVVSFYSF” is higher in “soluble fraction (log2)” value: -0.0624 for the first, 0.307 for the second.

Going from “HMTESFEFTMNDLVQNNLIMGSGAKERRIAVGEALGIGYTNAKQFLSRLNHYGITRKEFDDEIEKVNQN” to “HMTETEIVIGGKYRHYKGGEYELVSIVKHSETLEELVIYKSLSTGEMWARPKSLFVGLVDGQPRYTL”, the “soluble fraction (log2)” value falls from -0.311 to -2.22.

Going from “HMTETIPVSERLFRYLFEEKGKRVQKIQQTSHARVRMERSPYSVVVSGTKDAVEAAMESLKATEKELLEA” to “HMTETPDDLLAALKKNKKAQATFDAFSPSNKKEYILWITEAKTEATRTKRLETAIEWMSEGKARNW”, the “soluble fraction (log2)” value falls from -0.161 to -0.579.

Compared with “HMTETTTVPKLKGLTKDEAEDAAKSSKIKLEFIDEISKTVEAGVIIKQEKDEGETVNAGDTVKVYVSIGT”, “HMTEWSIHEVAQRSGVTTRTLRHYDAIGILSPTRTGANGYRYYGPEALVRLQRILLLRDLGLALSDIAE” is lower in “soluble fraction (log2)” value: 0.472 for the first, -3.82 for the second.

Compared with “HMTEYFTIESQEGERIDRYLSEELEDKSRSYIQKLIRDGHVLVDGKTVKAGYRLVAGDNIAITLPEI”, “HMTFAPTAIPSLTRPMEELMSWSFTPNEAFILSRINGLWDVRSIAKISPFPEGEVLRVFEKLHDGGLIRW” is lower in “soluble fraction (log2)” value: -0.132 for the first, -3.6 for the second.

Compared with “HMTFNEPSPKEIMDYSLSRGYKVDADAFIDFYRGKAKAYGKEGLWLDGRGRLVKDWRAKLRVVWFKDENKL”, “HMTGDIGAEAAKAAALAHAGVTESQTAKMKVDRDWDDGRLEYDVEFDVGRTEYEYTIDGVTGAVLEYEQDI” is higher in “soluble fraction (log2)” value: -1.36 for the first, 0.0252 for the second.

“HMTGDIIKQERKKKNLTQIELAKKVGISRNALINYEAGTRIPPISVQLKLADVLGIDILDLK” and “HMTGDISRALDQLPADMRTVLILYALEKQRYEDIAQITGVSVGTVKSRLNRARQKLAAILANQREQNE” are within 0.2 log units of each other in “soluble fraction (log2)” value: -1.64 for the first, -1.49 for the second.

Compared with “HMTGDNQTIGGGGFHHVAIRAHDFDASVKFYGETLGFREKIAWGEGDKRAIMMDTGDGNYIEIF”, “HMTGEDIKKVILREYAREKSLLSIFHELSKVNSNVTLEVIKDIITNIDKLPNDLLQYFKEESSFYQKNKN” is lower in “soluble fraction (log2)” value: 0.0318 for the first, -1.46 for the second.

Compared with “HMTGGIWVQIQGAVERPGVYSLPRDSRLKDLLEAAGGFGRDADTEKVNQAARLEDGAMYRVPRQGEG”, “HMTGGLLVHVAGAVGAPGVVSLPEGARVVDAIEAAGGAREDADTDQLNLARPVVDGEQVRVPVVGEVLE” is lower in “soluble fraction (log2)” value: 0.49 for the first, -0.00946 for the second.

Compared with “HMTGINMSYEEYKAMADIIVPLIKAGHSPYHIVTNHPELNISEKTLYNYIENGIFREFGLLDINL”, “HMTGIRVYPNPTSSELRFSVATDAALYDATGARLRVVRGSDMMDIRDLASGTYYVRFADGSTQSVVVT” is higher in “soluble fraction (log2)” value: -1.59 for the first, -0.755 for the second.

Compared with “HMTGKLGKIILQPKQTVYGITKKYQISESELRRLNPQLDSHLKIGDEVILPAENIKKFGGNQPVAVS”, “HMTGKTTLEYLNPLLERGIPVWDYLAKASGKAKEEVQEMVSKGLVPGAEAAKAIADYMGAEFAGSMA” is lower in “soluble fraction (log2)” value: 0.268 for the first, -0.0343 for the second.

First: HMTGKVKWYDADKGFGFVTEDGGRDVYVRKSALPQGVETLKAGQRLEFGIAEGRRGPQALSVR
Second: HMTGLFSPTEQTRHSKTGATLYSVKLAERIERNAFQSLKKRAKEHDGYYSSFTRSFLFDTPEDAEAFRGT
The “soluble fraction (log2)” value of the first is higher: -0.0771 for the first, -0.371 for the second.

For “HMTGMEASLSKLLQGEQFADLRKALIDKGIRKLEAFKRLNLWVFMNRNRLYSIGQRQTVYSTLQRALASE”, the “soluble fraction (log2)” value was -0.0934.
